Assay results published in PMC4913355 (Methods in enzymology, 2015).

B1: Skp (natural protein, E. coli, UniProt P0AEU7 21-161, looked up)
chain: ADKIAIVNMGSLFQQVAQKTGVSNTLENEFKGRASELQRMETDLQAKMKKLQSMKAGSDRTKLEKDVMAQRQTFAQKAQAFEQDRARRSNEERGKLVTRIQTAVKSVANSQDIDLVVDANAVAYNSSDVKDITADVLKQVK

Key:
[1] = target: B1; assay: contrast variation small-angle neutron scattering
[2] = target: the molecule itself; assay: small-angle neutron scattering

Binder | stoichiometry N [1] | stoichiometry N [2]
unfolded OmpW, deuterated (natural protein, UniProt P0A915 22-212, looked up, partially deuterated (estimated 50 % ± 5 %)) HEAGEFFMRAGSATVRPTEGAGGTLGSLGGFSVTNNTQLGLTFTYMATDNIGVELLAATPFRHKIGTRATGDIATVHHLPPTLMAQWYFGDASSKFRPYVGAGINYTTFFDNGFNDHGKEAGLSDLSLKDSWGAAGQVGVDYLINRDWLVNMSVWYMDIDTTANYKLGGAQQHDSVRLDPWVFMFSAGYRF | 3 Skp monomers per uOMP | –
unfolded OmpA, deuterated (natural protein, E. coli, UniProt P0A910 22-346, looked up, partially deuterated (estimated 50 % ± 5 %)) APKDNTWYTGAKLGWSQYHDTGFINNNGPTHENQLGAGAFGGYQVNPYVGFEMGYDWLGRMPYKGSVENGAYKAQGVQLTAKLGYPITDDLDIYTRLGGMVWRADTKSNVYGKNHDTGVSPVFAGGVEYAITPEIATRLEYQWTNNIGDAHTIGTRPDNGMLSLGVSYRFGQGEAAPVVAPAPAPAPEVQTKHFTLKSDVLFNFNKATLKPEGQAALDQLYSQLSNLDPKDGSVVVLGYTDRIGSDAYNQGLSERRAQSVVDYLISKGIPADKISARGMGESNPVTGNTCDNVKQRAALIDCLAPDRRVEIEVKGIKDVVTQPQA | 3 Skp monomers per uOMP | –
B1 | – | 3
